This is an account of results in article PMC9408853.

For one assay, the target named is CCR7-LgBiT (human) (UniProt P32248).
Assay [1] addresses human C-C chemokine receptor type 7 (human) (UniProt P32248).
The target is the same in assay [2]. The source holds these as a separate data set.

As for “C-C chemokine ligand 19 (from UniProt Q99731 22-98)”, in the assay with CCR7-LgBiT (human), the ligand-induced β-arrestin2 recruitment to CCR7 (NanoBiT, CCR7-LgBiT with SmBiT-β-arrestin2 in HEK293 cells), pEC50 was 7.61 pEC50 (M). Besides, in assay [1], the G protein activation, Gαi-1 (nanoBRET, Gαi1-91-NLuc with Gγ2-LSS-mKATE2) in HEK293 cells stably expressing CCR7, pEC50 is 8.64 pEC50 (M); the G protein activation, Gαi-2 (nanoBRET, Gαi2-91-NLuc with Gγ2-LSS-mKATE2) in HEK293 cells stably expressing CCR7, pEC50 is 9.02 pEC50 (M); the G protein activation, Gαi-3 (nanoBRET, Gαi3-91-NLuc with Gγ2-LSS-mKATE2) in HEK293 cells stably expressing CCR7, pEC50 was 9.61 pEC50 (M); the inhibition of forskolin-induced cAMP production (GloSensor) in HEK293 cells stably expressing CCR7, pEC50 is 7.83 pEC50 (M). Besides, in assay [1], the ligand-induced CCR7 internalisation (flow cytometry of surface CCR7, 30 min at 37 °C) in HEK293 cells stably expressing CCR7, pEC50 was 7.7 pEC50 (M). The cellular electrical impedance of HEK293 cells stably expressing CCR7, AUC[0–120], pEC50 in assay [2] is 8.2 pEC50 (M).
For the substance “C-C chemokine ligand 21 (from UniProt O00585 24-134)”, the ligand-induced β-arrestin2 recruitment to CCR7 (NanoBiT, CCR7-LgBiT with SmBiT-β-arrestin2 in HEK293 cells), pEC50 with CCR7-LgBiT (human) was 6.48 pEC50 (M). In assay [1], the G protein activation, Gαi-1 (nanoBRET, Gαi1-91-NLuc with Gγ2-LSS-mKATE2) in HEK293 cells stably expressing CCR7, pEC50 is 8.44 pEC50 (M); the G protein activation, Gαi-2 (nanoBRET, Gαi2-91-NLuc with Gγ2-LSS-mKATE2) in HEK293 cells stably expressing CCR7, pEC50 was 8.72 pEC50 (M); the G protein activation, Gαi-3 (nanoBRET, Gαi3-91-NLuc with Gγ2-LSS-mKATE2) in HEK293 cells stably expressing CCR7, pEC50 was 9.34 pEC50 (M); the inhibition of forskolin-induced cAMP production (GloSensor) in HEK293 cells stably expressing CCR7, pEC50 is 7.67 pEC50 (M). Besides, the ligand-induced CCR7 internalisation (flow cytometry of surface CCR7, 30 min at 37 °C) in HEK293 cells stably expressing CCR7, pEC50 in assay [1] was 6.73 pEC50 (M). In addition, the cellular electrical impedance of HEK293 cells stably expressing CCR7, AUC[0–120], pEC50 in assay [2] is 6.93 pEC50 (M).
